Laboratory results from IntAct's records for PubMed 20223215.

Target: lrp8_human LRP8 (UniProt Q14114)
Sequence of UniProt Q14114 (Q14114 whole entry): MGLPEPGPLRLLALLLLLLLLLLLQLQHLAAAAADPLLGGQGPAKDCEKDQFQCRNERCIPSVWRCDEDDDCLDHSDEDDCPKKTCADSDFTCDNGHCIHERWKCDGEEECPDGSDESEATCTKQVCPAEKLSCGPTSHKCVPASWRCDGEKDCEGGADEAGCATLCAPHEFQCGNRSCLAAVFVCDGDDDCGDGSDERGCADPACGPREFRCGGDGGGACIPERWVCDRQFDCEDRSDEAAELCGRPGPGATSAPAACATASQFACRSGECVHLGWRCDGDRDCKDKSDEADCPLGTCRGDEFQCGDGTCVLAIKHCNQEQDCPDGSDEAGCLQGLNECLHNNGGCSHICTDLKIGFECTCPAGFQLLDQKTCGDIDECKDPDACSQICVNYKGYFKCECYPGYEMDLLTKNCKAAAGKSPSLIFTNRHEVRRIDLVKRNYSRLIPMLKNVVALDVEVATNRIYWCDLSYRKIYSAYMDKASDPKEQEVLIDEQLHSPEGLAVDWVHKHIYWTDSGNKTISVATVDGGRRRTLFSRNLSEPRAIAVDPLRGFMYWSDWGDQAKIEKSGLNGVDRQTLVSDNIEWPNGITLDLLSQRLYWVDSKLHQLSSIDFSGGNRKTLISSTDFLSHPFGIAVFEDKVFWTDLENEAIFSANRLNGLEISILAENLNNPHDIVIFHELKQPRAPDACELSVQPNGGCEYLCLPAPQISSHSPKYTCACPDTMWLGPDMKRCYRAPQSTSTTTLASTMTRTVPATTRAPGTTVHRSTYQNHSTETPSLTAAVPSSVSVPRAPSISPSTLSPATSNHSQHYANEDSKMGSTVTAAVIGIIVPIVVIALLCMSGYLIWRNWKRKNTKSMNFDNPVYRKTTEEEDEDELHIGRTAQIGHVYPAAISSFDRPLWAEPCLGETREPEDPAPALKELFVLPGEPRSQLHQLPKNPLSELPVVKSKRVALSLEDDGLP

Substance | effect of a mutation on the interaction
Reelin (Mus musculus), Q60841 K2360A | disrupting interaction
Reelin (Mus musculus), Q60841 K2467A | disrupting interaction strength
Reelin (Mus musculus), Q60841 K2467R | disrupting interaction strength
